According to patent US11951128B2, “Compositions and methods for the isolation and/or generation of specific CD4+ and CD8+ T-cell subsets” (LA JOLLA INSTITUTE FOR ALLERGY AND IMMUNOLOGY, priority 2017, dated 2024):

B1: IL-10: anti-inflammatory cytokine (protein, UniProt P22301 19-178, looked up)
Interleukin-10: SPGQGTQSENSCTHFPGNLPNMLRDLRDAFSRVKTFFQMKDQLDNLLLKESLLEDFKGYLGCQALSEMIQFYLEEVMPQAENQDPDIKAHVNSLGENLKTLRLRLRRCHRFLPCENKSKAVEQVKNAFNKLQEKGIYKAMSEFDIFINYIEAYMTMKIRN
B2: IL-12: pro-inflammatory cytokine (protein, UniProt P29459 23-219; P29460 23-328, looked up)
Interleukin-12 subunit alpha: RNLPVATPDPGMFPCLHHSQNLLRAVSNMLQKARQTLEFYPCTSEEIDHEDITKDKTSTVEACLPLELTKNESCLNSRETSFITNGSCLASRKTSFMMALCLSSIYEDLKMYQVEFKTMNAKLLMDPKRQIFLDQNMLAVIDELMQALNFNSETVPQKSSLEEPDFYKTKIKLCILLHAFRIRAVTIDRVMSYLNAS
Interleukin-12 subunit beta: IWELKKDVYVVELDWYPDAPGEMVVLTCDTPEEDGITWTLDQSSEVLGSGKTLTIQVKEFGDAGQYTCHKGGEVLSHSLLLLHKKEDGIWSTDILKDQKEPKNKTFLRCEAKNYSGRFTCWWLTTISTDLTFSVKSSRGSSDPQGVTCGAATLSAERVRGDNKEYEYSVECQEDSACPAAEESLPIEVMVDAVHKLKYENYTSSFFIRDIIKPDPPKNLQLKPLKNSRQVEVSWEYPDTWSTPHSYFSLTFCVQVQGKSKREKKDRVFTDKTSATVICRKNASISVRAQDRYYSSSWSEWASVPCS

What was measured:
CD8ab T-cells = experiment: induction of CD8αα on in vitro activated CD8ab T-cells, measured with TL tetramer; assay type: cell-based, mice; conditions: for generation of CD8αα effector memory precursor cells: WT, IL10−/− or IL21−/− CD8ab T-cells, anti-CD3/CD28, with or without IL12
Method: CD8ab T-cells isolated from wild type mice (WT) or IL10 deficient mice (IL10−/−), or IL21 deficient mice (IL21−/−) were activated in vitro with anti-CD3/CD28 and with or without IL12. Induction of CD8αα was measured using TL tetramer.

B16 tumor cells = experiment: MHC class II expression on B16 tumor cells; assay type: cell-based, mouse
Excerpt: As a result, most transferred CD4 CTL died in vivo. In addition, activated anti-tumor specific CD8 CTL kill the tumor cells in response to detecting their Ag on the tumor cells presented by MHC class I (OVA Ag on the B16-OVA). In addition they also secrete IFNg which in turn upregulate MHC class II expression on the tumor cells (right panel). Anti-tumor reactive CD8 T-cells become restrained (induction of PD-1) or undergo TL- or activation-induced cell death. Therefore, a combination of anti-tumor CD8 T-cells (or NK T-cells or DN T-cells) and anti-tumor CD4 CTL which can kill tumor cells once MHC class II is induced, can be a powerful anti-tumor immunotherapy.

| Molecule | generation of CD8αβ TEM/RM (CD8ab T-cells) | generation of CD8αα effector memory precursor cells (CD8ab T-cells) | MHC class II (I-A^b) expression on tumor cells (B16 tumor cells) |
| --- | --- | --- | --- |
| IL-21: anti-inflammatory cytokine | counteract | inhibit |  |
| IFNg: soluble cytokine, the only member of the type II class of interferons |  |  | induce MHC class II (I-A^b) |
| B1 | counteract | inhibit |  |
| B2 | promotes | promotes |  |
